For assay [1], the target named is Gas41 YEATS domain (aa 15–159) Y74A (human) (UniProt O95619). Kind of assay: ITC; GAS41 YEATS (15-159) WT or mutants titrated with H3(1-34)K27ac peptide; 15 °C; 20 mM Tris-HCl pH 7.5, 500 mM NaCl, 5% glycerol, 2 mM β-mercaptoethanol; One Set of Binding Sites model. For orientation: In ITC the heat of successive injections is recorded.
The target of assay [2] is Gas41 YEATS mutants with residues H71, S73, Y74 and F96 replaced with alanine. The description is as above.
Assay [3] concerns the target Gas41 YEATS domain (aa 15–159) with E95 mutated (human) (UniProt O95619). The description is as above.
Assay [4] deals with Gas41 YEATS domain (aa 15–159) S73A (human) (UniProt O95619). Described as above.
The subject of another assay is J1 mESCs. Briefly: RA-induced differentiation, expression of Tip60/p400 and SRCAP complex genes (qRT-PCR, Western blot). The format is cell-based, mouse. The conditions noted are these: 1 μM RA, ES cell medium without LIF; vs day 0; technical duplicate. How it is done: mESCs were plated in 96-well ultra-low attachment round bottom plates (Corning) at 1000 cells/well in ES cell medium without LIF. Media was changed every other day before day 8 and daily thereafter. For RA treatment, mESCs seeded on gelatin-coated dishes were treated with 1 μM RA in ES cell medium without LIF. Undifferentiated mESCs cultured with LIF in gelatin-coated dishes, are considered as EB and RA day 0.
Total RNA extraction, reverse transcription and quantitative real-time PCR (qPCR) were performed as previously described. Gene expression values were calculated by normalization to Actb using the comparative CT method. Primers used in the study are listed in Supplementary Table S6.
In general terms: Real-time PCR tracks product formation cycle by cycle.

With “H3 (1–34) K27ac peptide (from UniProt P68431 2-35)”, the fold reduction of binding against wild type in assay [1] was found to be 69 fold; in assay [2] it was 94 fold; in assay [3], 7 fold; in assay [4], 14 fold.
Take `CC1=C(/C=C/C(C)=C/C=C/C(C)=C/C(=O)O)C(C)(C)CCC1` [RA, retinoic acid]: the “change in gene expression of Tip60/p400 and SRCAP complex components” value in the assay with J1 mESCs was “almost all the genes were downregulated”.
